# Test results from PMC4917298 (Nature immunology, 2016).
# B1: phosphorylated STING-Flag (phosphorylated by TBK1) (natural protein, mouse, UniProt Q3TBT3 1-378, looked up)
# chain: MPYSNLHPAIPRPRGHRSKYVALIFLVASLMILWVAKDPPNHTLKYLALHLASHELGLLLKNLCCLAEELCHVQSRYQGSYWKAVRACLGCPIHCMAMILLSSYFYFLQNTADIYLSWMFGLLVLYKSLSMLLGLQSLTPAEVSAVCEEKKLNVAHGLAWSYYIGYLRLILPGLQARIRMFNQLHNNMLSGAGSRRLYILFPLDCGVPDNLSVVDPNIRFRDMLPQQNIDRAGIKNRVYSNSVYEILENGQPAGVCILEYATPLQTLFAMSQDAKAGFSREDRLEQAKLFCRTLEEILEDVPESRNNCRLIVYQEPTDGNSFSLSQEVLRHIRQEEKEEVTMNAPMTSVAPPPSVLSQEPRLLISGMDQPLPLRTDLI
# modifications: phosphorylated by TBK1 (slower mobility, removed by calf intestine phosphatase); sites not stated
# Target: S6K1(WT)-HA (mouse, UniProt Q8BSK8-2 1-502)
# Sequence (Q8BSK8 24-525): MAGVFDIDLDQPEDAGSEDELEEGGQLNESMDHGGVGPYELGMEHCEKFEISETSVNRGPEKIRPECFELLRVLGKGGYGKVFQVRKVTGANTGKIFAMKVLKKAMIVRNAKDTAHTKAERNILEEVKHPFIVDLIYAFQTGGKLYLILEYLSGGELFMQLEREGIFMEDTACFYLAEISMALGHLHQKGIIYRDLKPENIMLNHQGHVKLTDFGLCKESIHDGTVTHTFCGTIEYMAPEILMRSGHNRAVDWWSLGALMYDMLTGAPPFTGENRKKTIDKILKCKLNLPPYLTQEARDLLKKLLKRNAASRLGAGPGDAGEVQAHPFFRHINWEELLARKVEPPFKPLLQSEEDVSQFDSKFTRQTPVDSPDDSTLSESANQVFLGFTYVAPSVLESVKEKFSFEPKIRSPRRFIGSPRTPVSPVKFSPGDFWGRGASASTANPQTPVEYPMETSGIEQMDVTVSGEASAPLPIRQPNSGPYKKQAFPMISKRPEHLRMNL
# Assay: co-IP
binder,measurement,value
B1,binding result,binds
